Like-named read-outs stand apart in the source and are kept apart here. Blank lines part the entries; values can stand above or below the binder they belong to.
Assays:
human LAG3-mG1Fc [1] = target: T1, human LAG3-mG1Fc (human; mouse, UniProt P18627 23-450, limits assumed); test: ELISA, LAG3-mG1Fc coated 2 ug/mL
T1 construct: Made by Akeso; also called huLAG3-mG1Fc; HuLAG3-mG1Fc; not shown: mouse IgG1 Fc (mG1Fc); limits not readable
T1 sequence (looked up): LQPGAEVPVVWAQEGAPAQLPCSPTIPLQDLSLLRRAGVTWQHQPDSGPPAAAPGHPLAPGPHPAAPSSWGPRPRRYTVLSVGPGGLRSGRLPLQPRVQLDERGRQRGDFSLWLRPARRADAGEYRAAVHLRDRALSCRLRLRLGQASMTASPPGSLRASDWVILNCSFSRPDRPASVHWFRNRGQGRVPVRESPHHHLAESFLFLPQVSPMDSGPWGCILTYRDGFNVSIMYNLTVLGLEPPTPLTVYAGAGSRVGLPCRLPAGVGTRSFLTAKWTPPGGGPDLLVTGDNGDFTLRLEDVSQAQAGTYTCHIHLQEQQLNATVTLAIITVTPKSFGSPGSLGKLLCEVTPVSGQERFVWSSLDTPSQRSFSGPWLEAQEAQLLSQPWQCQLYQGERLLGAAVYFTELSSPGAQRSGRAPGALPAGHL

[2] = target: T2, human LAG3 on cell surface (293T-LAG3 cells; Jurkat-NFAT-PD1-LAG3 cells) (human, UniProt P18627 23-525); test: flow cytometry on 293T-LAG3 cells
T2 construct: whole, on cells; also called huLAG3FL
T2 sequence (looked up): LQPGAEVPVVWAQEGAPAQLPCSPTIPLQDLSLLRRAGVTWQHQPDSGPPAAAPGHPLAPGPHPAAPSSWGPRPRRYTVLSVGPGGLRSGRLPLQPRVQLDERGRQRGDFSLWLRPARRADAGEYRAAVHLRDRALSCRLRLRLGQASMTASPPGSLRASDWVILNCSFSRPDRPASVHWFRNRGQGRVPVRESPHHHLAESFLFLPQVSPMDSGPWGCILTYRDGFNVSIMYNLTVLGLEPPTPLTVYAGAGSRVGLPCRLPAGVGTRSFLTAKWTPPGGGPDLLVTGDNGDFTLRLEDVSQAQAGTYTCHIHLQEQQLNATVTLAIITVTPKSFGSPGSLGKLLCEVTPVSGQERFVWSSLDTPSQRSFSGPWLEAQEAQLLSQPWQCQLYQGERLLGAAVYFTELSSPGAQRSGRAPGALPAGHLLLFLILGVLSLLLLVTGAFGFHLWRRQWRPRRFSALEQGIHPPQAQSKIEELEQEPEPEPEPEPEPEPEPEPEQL

[3] = target: T2, human LAG3 on cell surface (293T-LAG3 …); test: flow cytometry on 293T-LAG3 cells; remark: listed apart in the source
human LAG3-mG1Fc [4] = target: T1, human LAG3-mG1Fc; test: BLI (Fortebio), antigen on AMC sensor, antibody in solution, 30 C, 1:1 fit
human LAG3-mG1Fc [5] = target: T1, human LAG3-mG1Fc; test: competitive flow cytometry, 3 nM LAG3-mG1Fc on Raji cells (competitor MHC II)
human LAG3-mG1Fc [6] = target: T1, human LAG3-mG1Fc; test: as above; remark: listed apart in the source
[7] = target: T3, CD73 on U87-MG cell membrane surface (UniProt P21589 27-549, limits assumed); test: flow cytometry on U87-MG cells
T3 construct: whole, on cells; also called CD73 endogenously expressed by U87-MG
T3 sequence (looked up): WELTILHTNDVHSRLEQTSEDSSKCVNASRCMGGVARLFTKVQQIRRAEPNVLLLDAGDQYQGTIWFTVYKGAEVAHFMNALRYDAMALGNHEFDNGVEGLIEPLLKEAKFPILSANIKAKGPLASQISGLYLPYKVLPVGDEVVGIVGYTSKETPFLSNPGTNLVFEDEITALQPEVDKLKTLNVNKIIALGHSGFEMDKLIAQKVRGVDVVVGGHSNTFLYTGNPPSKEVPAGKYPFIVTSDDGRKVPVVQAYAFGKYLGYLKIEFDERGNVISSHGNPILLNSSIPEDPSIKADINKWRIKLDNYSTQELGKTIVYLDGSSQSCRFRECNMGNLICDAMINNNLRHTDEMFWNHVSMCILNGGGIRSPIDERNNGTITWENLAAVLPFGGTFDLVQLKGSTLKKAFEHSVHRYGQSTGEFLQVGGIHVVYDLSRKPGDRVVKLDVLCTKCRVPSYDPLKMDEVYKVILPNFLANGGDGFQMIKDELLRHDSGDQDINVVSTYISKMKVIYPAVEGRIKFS

[8] = target: T3, CD73 on U87-MG cell membrane surface; test: cell-based or functional assay
hNT5E(1-552)-His [9] = target: T4, hNT5E(1-552)-His (human, UniProt P21589 27-552); test: ELISA, NT5E-His coated 1 ug/mL
T4 construct: also called NT5E-His; not shown: His tag
T4 sequence (looked up): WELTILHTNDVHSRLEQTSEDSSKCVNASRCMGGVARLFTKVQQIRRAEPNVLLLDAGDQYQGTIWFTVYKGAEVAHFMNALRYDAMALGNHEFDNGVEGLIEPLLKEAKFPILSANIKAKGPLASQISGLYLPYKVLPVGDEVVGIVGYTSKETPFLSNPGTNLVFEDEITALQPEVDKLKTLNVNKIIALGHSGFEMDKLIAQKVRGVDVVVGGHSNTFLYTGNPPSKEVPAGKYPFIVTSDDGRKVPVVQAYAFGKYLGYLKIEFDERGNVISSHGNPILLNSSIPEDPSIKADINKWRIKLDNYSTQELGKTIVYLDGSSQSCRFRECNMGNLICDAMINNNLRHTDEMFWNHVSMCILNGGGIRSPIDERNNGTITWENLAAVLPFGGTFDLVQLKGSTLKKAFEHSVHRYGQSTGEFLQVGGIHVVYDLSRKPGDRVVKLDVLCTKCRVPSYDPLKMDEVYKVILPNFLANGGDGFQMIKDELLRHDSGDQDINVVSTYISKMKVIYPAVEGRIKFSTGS

hNT5E(1-552)-His [10] = target: T4, hNT5E(1-552)-His; test: ELISA, NT5E-His coated 1 ug/mL; remark: listed apart in the source
hNT5E(1-552)-His [11] = target: T4, hNT5E(1-552)-His; test: ELISA, NT5E-His coated 1 ug/mL; remark: listed apart in the source
hNT5E(1-552)-His [12] = target: T4, hNT5E(1-552)-His; test: BLI (Fortebio), antigen on HIS1K sensor, antibody in solution, 37 C, 1:1 fit

EC50 (human LAG3-mG1Fc [1]): 0.123 nM
EC50 [2]: 4.86 nM
EC50 [3]: 0.501 nM
Kd (human LAG3-mG1Fc [4]): 0.3 nM
Maximum signal height of analyte (nm) (human LAG3-mG1Fc [4]): 0.878 nm
S E (kdis) (human LAG3-mG1Fc [4]): 2.94e-06 s⁻¹
S E (kon) (human LAG3-mG1Fc [4]): 2330 M⁻¹ s⁻¹
koff (human LAG3-mG1Fc [4]): 0.000121 s⁻¹
kon (human LAG3-mG1Fc [4]): 405000 M⁻¹ s⁻¹
EC50 (human LAG3-mG1Fc [5]): 1.46 nM
EC50 (human LAG3-mG1Fc [6]): 1.44 nM
B1: H9L8(hG4WT) (antibody, human IgG4 S228P, kappa, V domains shown)
VH: QVQLQQWGAGLLKPSETLSLTCAVYGGSISDYYWNWIRQPPGKGLEWIGEINYRGTTNSNPSLKSRVTLSLDTSKNQFSLKLRSVTAADTAVYYCAFGYSDYEYDWFDPWGQGTLVTVSS
VL: EIVLTQSPATLSLSPGERATLSCRASQTISSYLAWYQQKPGQAPRLLIYDASNRATGIPARFSGSGSGTDFTLTISSLEPEDFAVYYCQQRSNWPITFGQGTNLEIKR
notes: Humanized anti-LAG3 IgG4 (wild type), kappa

EC50 (human LAG3-mG1Fc [1]): 0.129 nM
EC50 [2]: 4.53 nM
EC50 (human LAG3-mG1Fc [5]): 1.48 nM
B2: H9L9(hG4WT) (antibody, human IgG4 S228P, kappa, V domains shown)
VH: QVQLQQWGAGLLKPSETLSLTCAVYGGSISDYYWNWIRQPPGKGLEWIGEINYRGTTNSNPSLKSRVTLSLDTSKNQFSLKLRSVTAADTAVYYCAFGYSDYEYDWFDPWGQGTLVTVSS
VL: EIVLTQSPATLSLSPGERATLSCRASQTISSYLAWYQQKPGQAPRLLIYDGSNRATGIPARFSGSGSGTDFTLTISSLEPEDFAVYYCQQRSNWPLTFGQGTNLEIKR
notes: as for B1

EC50 (human LAG3-mG1Fc [1]): 0.14 nM
EC50 [2]: 3.92 nM
EC50 (human LAG3-mG1Fc [5]): 1.44 nM
B3: H9L10(hG4WT) (antibody, human IgG4 S228P, kappa, V domains shown)
VH: QVQLQQWGAGLLKPSETLSLTCAVYGGSISDYYWNWIRQPPGKGLEWIGEINYRGTTNSNPSLKSRVTLSLDTSKNQFSLKLRSVTAADTAVYYCAFGYSDYEYDWFDPWGQGTLVTVSS
VL: EIVLTQSPATLSLSPGERATLSCRASQSISSYLAWYQQKPGQAPRLLIYDGSNRATGIPARFSGSGSGTDFTLTISSLEPEDFAVYYCQQRSNWPITFGQGTNLEIKR
notes: Humanized anti-LAG3 IgG4 (wild type), kappa; also called HIL10(hG4WT)

EC50 [7]: 8.47 nM
B4: CPI-006 (antibody, V domains shown)
VH: QVQLVQSGAEVEKPGASVKVSCKASGYTFTSYWITWVRQAPGQGLEWMGDIYPGSGNTNYNEKFKTRVTITADKSTSTAYMELSSLRSEDTAVYYCAKEGGLTTEDYALDYWGQGTLVTVSS
VL: EIVLTQSPATLSLSPGERATLSCRASKNVSTSGYSYMHWYQQKPGQAPRLLIYLASNLESGIPPRFSGSGYGTDFTLTINNIESEDAAYYFCQHSRELPFTFGQGTKVEIKR

EC50 (nM), inhibition of CD73 enzyme activity on U87-MG cells [8]: 0.152 nM
Maximum inhibition rate (%) of CD73 enzyme activity on U87-MG cells [8]: 58.3%
B5: MEDI9447 (antibody, V domains shown)
VH: EVQLLESGGGLVQPGGSLRLSCAASGFTFSSYAYSWVRQAPGKGLEWVSAISGSGGRTYYADSVKGRFTISRDNSKNTLYLQMNSLRAEDTAVYYCARLGYGRVDEWGRGTLVTVSS
VL: QSVLTQPPSASGTPGQRVTISCSGSLSNIGRNPVNWYQQLPGTAPKLLIYLDNLRLSGVPDRFSGSKSGTSASLAISGLQSEDEADYYCATWDDSHPGWTFGGGTKLTVL

EC50 (hNT5E(1-552)-His [9]): 0.011 nM
EC50 (hNT5E(1-552)-His [10]): 0.011 nM
EC50 (hNT5E(1-552)-His [11]): 0.015 nM
EC50 [7]: 6.06 nM
Kd (hNT5E(1-552)-His [12]): 0.505 nM
Maximum signal height of analyte (nm) (hNT5E(1-552)-His [12]): 0.168 nm
S E (kdis) (hNT5E(1-552)-His [12]): 3.54e-06 s⁻¹
B6: 19F3H2L3(hG1DM) (antibody, human IgG1, kappa, L234A L235A, V domains shown)
VH: QVQLVQSGAEVVKPGASVKVSCKASGYSFTGYTMNWVRQAPGQNLEWIGLINPYNAGTSYNQKFQGKVTLTVDKSTSTAYMELSSLRSEDTAVYYCARSEYRYGGDYFDYWGQGTTLTVSS
VL: DIVMTQSPSSLAVSVGERVTISCKSSQSLLNSSNQKNYLAWYQQKPGQAPKLLIYFASTRESGVPDRFSGSGSGTDFTLTISSLQAEDVAVYYCQQHYDTPYTFGGGTKLEIKR
notes: Humanized anti-CD73 IgG1 with L234A/L235A

Source: patent publication EP4714970A1 (Akeso Biopharma Co., Ltd., dated 2026)
